The results in this text go back to the nanobody polyreactivity screen of Harvey et al. (2022).

The nature of this data set: yeast display, Sf9 membrane polyspecificity reagent, FACS + sequencing; frameworks hold sequencing errors. The method in brief: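 Nanobodies came from a synthetic yeast display library in Saccharomyces cerevisiae BJ5465, induced with galactose for 36–48 hours and stained for 1 hour at 4 °C with 10% biotinylated, detergent-solubilized Sf9 membrane reagent. Cells were enriched on streptavidin microbeads and then FACS-sorted, with low and high (top ~1%) gates set on anti-HA fluorescence for expression and streptavidin fluorescence for reagent binding. Each polyreactivity label reflects the gate a clone came from. Genes were amplified by colony PCR, sequenced by MiSeq 2 × 250 and filtered by CDR length.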
In the case of “QVQLVESGGGLVQAGGSLRLSCAASGRIFTYYAMGWYRQAPGKERELVAGISGSGTSTYYADSVKGRFTISRDNAKNTVYLQMNSLKPEDTAVYYCAAIRRQNGLWDYYYWGQGTQVTVSS”, the “polyreactivity (PSR sort gate)” value was “low polyreactivity”. In the case of “QVQLVESGGGLVQAGGSLRLSCAASGRIFTYYAMGWYRQAPGKERELVATISSSGSTNYADSVKGRFTISRDNAKNTVYLQMNSLKPEDTAVYYSAKKTRRRYDVKYDYWGQGTQVTVSS” it was “low polyreactivity”; in that of “QVQLVESGGGLVQAGGSLRLSCAASGRIFTYYAMGWYRQAPGKVRELVAAISSGGSTYYADSVKGRFTISRDNAKTTVYLQMNSLTPEDTAVYYCAAEPSYYPYLSPTYGYWGQGTQVTVSS”, “low polyreactivity”. In the case of “QVQLVESGGGLVQAGGSLRLSCAASGRIFTYYAMVWYRQAPGKERELVAAITGSGTSTYYADSVKGRFTISRDNAMNTVFLLMNSLKPEDTAVYYCAARNSFSRYYYWGQGTQVTVSS” it was “high polyreactivity”; in that of “QVQLVESGGGLVQAGGSLRLSCAASGRIFTYYGMGWYRQAPGKEWELVAAISSSGDSTFYADSVKGRFTISRDNAKNTVYLQMNSLKPEDTAVYYCAADYYYVWYDYWGQGTQVTVSS”, “low polyreactivity”. Next, “QVQLVESGGGLVQAGGSLRLSCAASGRIFTYYTKGWSRQAPGKERELVAAITRGGITNYADSVKGRFTISRDNAKNTVYLQMNSLKPEDTAVYYCNAVARVYSEGIRYGYWGQGTQVTVSS”: “high polyreactivity”; “QVQLVESGGGLVQAGGSLRLSCAASGRIFVDNAMGWYRQAPGKERELVAAITRGGSTYADSVKGRFTISRDNAKNTVYLQMNSLKPEDTAVYYCAADLWSVPFTVYTFGIFYYWGQGTQVTVSS”: “low polyreactivity”. In the case of “QVQLVESGGGLVQAGGSLRLSCAASGRIFVDNTMGWYRQAPGKERELVAVITSGGSTNYADSVKGRFTISRDNAKNTVYLQMNSLKPEDTAVYYCATEPGGYRFDDRPFQYGYWGQGTQVTVSS”, the “polyreactivity (PSR sort gate)” value was “low polyreactivity”. Take “QVQLVESGGGLVQAGGSLRLSCAASGRIFVDYAMGWNRQAPGKERELVAAISWSGRTYYADSVKGRFTISRDNAKNTVYLQMNSLKPEDTAVYYCNAAYHYYGKYDYWGQGTQVTVSS”: the “polyreactivity (PSR sort gate)” value is “high polyreactivity”.

As for “QVQLVESGGGLVQAGGSLRLSCAASGRIFVDYVMGWYRQAPGKERELVARITWIGGNTYYADSVKGRFTISRDNAKNTVYLQMKSLKPEETAVYYCNAGLTLLSRRHEGWYGYDYWGQGTQVTVSS”, the “polyreactivity (PSR sort gate)” value is “low polyreactivity”. Next, “QVQLVESGGGLVQAGGSLRLSCAASGRIFVGYALGWYRQAPGKERELVAAINRSGSSTYYADSVKGRFTISRDNAKNTVYLQMNSLKPEDTAVYYCNARSGNRYGPRYDYWGQGTQVTVSS”: “high polyreactivity”; “QVQLVESGGGLVQAGGSLRLSCAASGRIFVGYAMGWYRPAPGKERELVAAINRSGSCTYYADSVKVRFTISRDNAKITGYLQMNSLKPEDTAVYYCNARSGNRYGPRYDDWGQGTQVTVSS”: “high polyreactivity”; “QVQLVESGGGLVQAGGSLRLSCAASGRIFVGYAMGWYRQAPGKEREFVAAISRNGGRTYYADSVKGRFTISRDNAKNTVYLQMNSLKPEDTAVYYCATEKYVPSPGGYWGQGTQVTVSS”: “high polyreactivity”.

For the sequence “QVQLVESGGGLVQAGGSLRLSCAASGRIFVGYAMGWYRQAPGKERELVAAINRSGSSTYYADSVKGRFTISRDNAKNTVYLQMNSLKPEDTAVYYCNAARRQGNRYTYDYWGQGTQVTVSS”, the “polyreactivity (PSR sort gate)” value is listed as “high polyreactivity”. Next, “QVQLVESGGGLVQAGGSLRLSCAASGRIFVGYAMGWYRQAPGKERELVAAINRSGSSTYYADSVKGRFTISRDNAKNTVYLQMNSLKPEDTAVYYCNARSANRYGPRYDYWGQGTQVTVSS”: “high polyreactivity”; “QVQLVESGGGLVQAGGSLRLSCAASGRIFVGYAMGWYRQAPGKERELVAVISGRGGSTYYADSVKGRFTISRDNAKNTVYLQMNSLKPEDTAVYYCATDYYGPDYPLDYWGQGTQVTVSS”: “low polyreactivity”. Next, “QVQLVESGGGLVQAGGSLRLSCAASGRIFVHYVMGWYRQAPGKERELVAAISRSGGRTYYADSVKGRFTISRDNAKNTVYLQMNSLKPEDTAVYYCNVYHWSRVFAIDYYWGQGTQVTVSS”: “high polyreactivity”; “QVQLVESGGGLVQAGGSLRLSCAASGRIFVINVMGWSRQAPGKERELVATITWSVGSTYYADSVKGRFTISRDTAKNTVYLQMNSLKPEDTAVYYCAAASSFKFDYWGQGTQVTVSS”: “low polyreactivity”. For the sequence “QVQLVESGGGLVQAGGSLRLSCAASGRIFVKYAMGWYRQATGKERELVAAISKSGGSTYYADSVKGRFTISRDNAKNTVYLQMNSLKPEDTAVYYCATRSRDQYSVSYRLDYWGQGTQVTVSW”, the “polyreactivity (PSR sort gate)” value is “low polyreactivity”.

Take “QVQLVESGGGLVQAGGSLRLSCAASGRIFVKYTMGWYRQAPGKERELVAAIDFDTDSTYYADSVKGRFTISRDNAMNTVYLQMNSLKPEDTAVYYCAADQYYYWYTHQSIGYDYWGQGTQVTVSS”: the “polyreactivity (PSR sort gate)” value is listed as “low polyreactivity”.

For “QVQLVESGGGLVQAGGSLRLSCAASGRIFVLYAMGWYRQAPGKERELVAAISTSGGSTYYADSVKGRFTISRDNAKNTYYLQMNSLKPEDTAVYYCAADRSARFLFIQYYPYGMDYWGQGTQVTVSS”, the “polyreactivity (PSR sort gate)” value is recorded as “high polyreactivity”. In the case of “QVQLVESGGGLVQAGGSLRLSCAASGRIFVNYAMGWYRQAPGKEREFVAGIRVNGGSTYYADSVKGRFTISRDNAKNTVYLQMNSLKPEDTAVYYCAKAYPGTYREYDYWGQGTQVTVSS” it was “high polyreactivity”; in that of “QVQLVESGGGLVQAGGSLRLSCAASGRIFVNYAMGWYRQEPGKERELVAAITSDGSTSYADSVKGRFTISRDTAKNTVYLQMNSLKPDDPAVYYCAKDFFEHSPVSHTYSSSKYDYWGEGTQVTVSS”, “low polyreactivity”. Next, “QVQLVESGGGLVQAGGSLRLSCAASGRIFVPYAMGWYRQAPGKERELVAGITSGSRTNYADSVKGRFTISRDNAKYTVYLQMNSLKPEDTEVYYCNALDFRYYGIFDYWGQGTQVTVSS”: “high polyreactivity”; “QVQLVESGGGLVQAGGSLRLSCAASGRIFVQYAMGWNRQAPGKERELVAAISGSGGRTYYADSVKWRFTISRDNAKNTVYLQMNSLKTEDTAVFYCAARSSTGVSFWKPYYYWGQGTQVTLSS”: “high polyreactivity”; “QVQLVESGGGLVQAGGSLRLSCAASGRIFVRYAMGWYRQAPGKERELVAAISKSGGSTYYADSVKGRFTISRDNAKNTVYLQMNSLKPEDTAVYYCNALVRRRPGYIRYDYWGQGTQVTVSS”: “low polyreactivity”. Take “QVQLVESGGGLVQAGGSLRLSCAASGRIFVSNAMGWYRQAPGKERELVAGITWTSGSTYYADSVKGRFTISRDNAKNTVYLQMNSLKPEDTAVYYCAAEYCYGNAFDYWGQGTQVTVSS”: the “polyreactivity (PSR sort gate)” value is on record as “low polyreactivity”.

For the sequence “QVQLVESGGGLVQAGGSLRLSCAASGRIFVSNAMGWYRQAPGKERELVASISWSGGSTYYADSVKGRFTISRDNAKNTVYLQMNSLKPEDTAVYYCNRVRYPRQGFRLYYWGQGTQVTVSS”, the “polyreactivity (PSR sort gate)” value is “high polyreactivity”. As for “QVQLVESGGGLVQAGGSLRLSCAASGRIFVSNVMGWYRQAPGKERELVATITWSDGSTYYADSVKGRFTISRDNAKNTVYLQMNSLKPEDTAVYYCNVDQYTYVDLYWEYYFWGQGTQVTVSS”, the “polyreactivity (PSR sort gate)” value is “low polyreactivity”.

For the sequence “QVQLVESGGGLVQAGGSLRLSCAASGRIFVTNAMGGYRQAPGKEREFVAGISFSGDGRTYYADSVKGRFTISRDNAKNTVYLQMNSLKPEDSAVYYCAAPHRSRTHELDYWGQGTQVTVSS”, the “polyreactivity (PSR sort gate)” value is on record as “low polyreactivity”.
